To fix the notation:
T1: PTP1B (Homo sapiens, UniProt P18031)
T1 construct: human PTP1B phosphatase domain (residues 2–321) with a GST tag; GST (cleaved yes); made in house; host or cells: E. coli BL21 (DE3)
T1 sequence (P18031 2-321): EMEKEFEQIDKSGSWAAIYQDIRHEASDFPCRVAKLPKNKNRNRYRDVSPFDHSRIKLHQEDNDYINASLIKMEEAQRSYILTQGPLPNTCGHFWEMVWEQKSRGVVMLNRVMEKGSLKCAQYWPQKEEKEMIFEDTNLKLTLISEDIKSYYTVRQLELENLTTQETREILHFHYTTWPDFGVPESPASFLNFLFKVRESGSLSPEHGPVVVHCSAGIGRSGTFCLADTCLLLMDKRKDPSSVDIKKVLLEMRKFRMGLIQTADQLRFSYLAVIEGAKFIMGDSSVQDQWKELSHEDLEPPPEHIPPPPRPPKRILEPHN

T2: IRK pYpY activation loop peptide
T2 peptide: ETD[pY][pY]RKGGKGL

T3: PTP1B phosphatase domain (residues 2-321) C215A/D181A/Q262A triple mutant (human, UniProt P18031 2-321, D181A | C215A | Q262A)
T3 construct: Protein tyrosine phosphatase 1B, human, phosphatase domain, residues 2-321, D181A/C215A/Q262A; pPROEX vector; no cleavage of the His tag is told; also called D181A/Q262A/C215A; PTP1B D/Q/C; source: E. coli BL21 (DE3), purified (nickel resin, size exclusion)
T3 sequence (looked up): T1 sequence (P18031 2-321) with D180A, C214A, Q261A

T4: PTP1B phosphatase domain (residues 2-321) D181A/Q262A (human, UniProt P18031 2-321, D181A | Q262A)
T4 construct: Protein tyrosine phosphatase 1B, human, phosphatase domain, residues 2-321, D181A/Q262A; pPROEX vector; no cleavage of the His tag is told; also called PTP1B D181A/Q262A; PTP1B D/Q; source: E. coli BL21 (DE3), purified (nickel resin, size exclusion)
T4 sequence (looked up): T1 sequence (P18031 2-321) with D180A, Q261A

B1: PTP1B phosphatase domain (residues 2-321) R47A (enzyme)
chain: T1 sequence (P18031 2-321) with R46A
B2: human PTP1B phosphatase domain (residues 2-321), wild type (enzyme, UniProt P18031 2-321, looked up)
chain: T1 sequence (P18031 2-321)
B3: JAK2 pYpY activation loop peptide (peptide)
peptide: VLPQDKE[pY][pY]KVKEPGE
notes: printed as VLPQDKE[pY][pY]KVKEPGE; In the crystal with PTP1B D181A/Q262A the peptide is seen as the dephosphorylated product; source: synthetic peptide
B4: TYK2 pYpY activation loop peptide (peptide)
peptide: VPEGHE[pY][pY]RVREDGD
notes: printed as VPEGHE[pY][pY]RVREDGD; In the crystal with PTP1B D181A/Q262A the peptide is seen as the dephosphorylated product; source: synthetic peptide
B5: JAK1 pYpY activation loop peptide (peptide)
peptide: AIETDKE[pY][pY]TVKDDLD
notes: printed as AIETDKE[pY][pY]TVKDDLD; In the crystal with PTP1B D181A/Q262A the peptide is seen as the dephosphorylated product; also called JAK1 peptide; source: synthetic peptide
B6: JAK3 pYpY activation loop peptide (peptide)
peptide: LLPLDKD[pY][pY]VVREPGQ
notes: printed as LLPLDKD[pY][pY]VVREPGQ; In the crystal with PTP1B D181A/Q262A the peptide is seen as the dephosphorylated product; also called JAK3 peptide; source: synthetic peptide

Assay [1] addresses T1, PTP1B. Nature of the assay: 1H NMR dephosphorylation of activation loop peptides. The class given is biochemical. Conditions: bisphosphorylated peptide as substrate, WT PTP1B, Fig. 6c. From the text:
A Michaelis-Menten analysis of dephosphorylation of JAK2 and IRK activation loop peptides indicated an enhanced dephosphorylation rate for both peptides when in the bisphosphorylated state (Fig. 6a), consistent with previous data on IRK[7]. […] Using ^1H NMR we then measured the dephosphorylation of individual YpY, pYY and YY peptides over time (Supplementary Fig. S5), and similarly, observed an overall preference for bisphosphorylated peptides, however JAK2 YpY was dephosphorylated at a similar rate as the pYpY peptides, highlighting again the preference for this residue by PTP1B (Fig. 6).
Fig. 6 PTP1B preferentially targets different phosphotyrosines in the JAK2 and IRK activation loops. a Michaelis–Menten analysis of PTP1B-induced dephosphorylation via the malachite green assay. Data are from three independent experiments, error bars are SEM. b Dephosphorylation of mono- and bisphosphorylated peptides over time as measured by 1H NMR to determine reaction rate (shown as s-1). c 1H NMR was used to track the dephosphorylation of JAK2 and IRK bisphosphorylated activation loop peptides over time. […]
(§1) Specifically, we measured the appearance of the individual YpY, pYY and YY products over time (Supplementary Fig. S6). […]
0.5 mg of JAK2 or IRK pYpY, pYY and YpY peptides were dissolved in 500 μl of 20 mM Tris (pH 7.5), 2 mM TCEP, and 100 mM NaCl. […] Data was analyzed using TopSpin v3.2 (Bruker). […]

A further assay relates to PTP1B R47A. Nature of the assay: 1H NMR dephosphorylation of bisphosphorylated activation loop peptides. Type of assay: biochemical, human. Conditions: bisphosphorylated peptide as substrate, PTP1B R47A mutant.
Excerpt: Fig. 6 PTP1B preferentially targets different phosphotyrosines in the JAK2 and IRK activation loops. a Michaelis–Menten analysis of PTP1B-induced dephosphorylation via the malachite green assay. Data are from three independent experiments, error bars are SEM. b Dephosphorylation of mono- and bisphosphorylated peptides over time as measured by 1H NMR to determine reaction rate (shown as s-1). c 1H NMR was used to track the dephosphorylation of JAK2 and IRK bisphosphorylated activation loop peptides over time. […] Arg47 has an effect on the preference for dephosphorylation of the second phosphotyrosine in JAK2, with loss of selectivity for dephosphorylation of either phosphotyrosine in the R47A PTP1B mutant. […]
as §1
0.5 mg of JAK2 or IRK pYpY, pYY and YpY peptides were dissolved in 500 μl of 20 mM Tris (pH 7.5), 2 mM TCEP, and 100 mM NaCl. […] To start the dephosphorylation reaction, 2 nM PTP1B was added to each sample and multiple 1H NMR spectra were recorded over the course of 1 h. Data was analyzed using TopSpin v3.2 (Bruker). The concentration of each species of ALP (pYpY, pYY, or YpY) in the reaction was calculated by integrating the area under the peak and normalising these values to the starting peptide concentration.

Assay [2] has as its system PTP1B. Particulars: peptide with Phe in the −1 position; cited from earlier work.
Assay [3] concerns the target B3.
For assay [4], the target named is T2, IRK pYpY activation loop peptide. Put plainly: cell-based or functional assay.
Assay [5] addresses B3. Nature of the assay: cell-based or functional assay.
Assay [6] has as its target T3, PTP1B phosphatase domain (residues …). Nature of the assay: crystal structure; catalytically dead PTP1B D181A/Q262A/C215A co-crystallised with a 2-fold excess of phosphopeptide; substrate-bound. Particulars: both partners purified.
Assay [7] concerns the target T4, PTP1B phosphatase domain (residues …). Nature of the assay: crystal structure; PTP1B D181A/Q262A co-crystallised with a 2-fold excess of bisphosphorylated peptide; the tyrosyl-peptide product and free phosphate are seen in the active site. Particulars: both partners purified.

Residue numbers refer to the chain shown, from its start. Names and notes keep the numbering of the source. Square brackets hold non-standard residues; d marks the D form. Ends that are not written are not given here. pY = N[C@@H](Cc1ccc(OP(=O)(O)O)cc1)C(=O)O

For VLPQDKE[pY][pY]KVKEPGE [JAK2 pYpY], at PTP1B [1] (1H NMR tracking of pYY and YpY products), the “rate of dephosphorylation of the second pTyr relative to the first” value is listed as ~ 3 fold. For the same molecule, the “preference for dephosphorylation of the second pTyr over the first” value with PTP1B R47A is recorded as 1.3 fold.
Regarding “ELEFpYMDYE [peptide of PDB 1EEO with Phe in the −1 position, literature PTP1B substrate]”, the “substrate quality for PTP1B” value with PTP1B [2] is recorded as “potent PTP1B substrate”.
Take ETD[pY][pY]RKGGKGL [IRK pYpY]: on PTP1B [1] (1H NMR tracking of products), the “preference for dephosphorylation of the first pTyr over the second” value is on record as ~ 1.6 fold.
In assay [3], B1 came in with a preference for dephosphorylation of the second pTyr against the first in the bisphosphorylated peptide, followed by 1H NMR of 1.3 fold.
Turning to B2, the “preference for dephosphorylation of the first pTyr against the second in the bisphosphorylated peptide, followed by 1H NMR” value in assay [4] is approximately 1.6 fold. The “rate of dephosphorylation of the second pTyr against the first in the bisphosphorylated peptide, followed by 1H NMR” value in assay [5] was approximately 3 fold.
Regarding VLPQDKEY[pY]KVKEPGE (source: synthetic peptide) [JAK2 YpY activation loop peptide], in assay [6], the binding result was “binds”.
As to B3, the binding result in assay [6] and in assay [7] was “binds” in each case.
Consider B4, for which the binding result in assay [6] and in assay [7] was “binds” throughout.
Take B5: in assay [7], the binding result is given as “binds”.
Take VLPQDKE[pY]YKVKEPGE (source: synthetic peptide) [JAK2 pYY activation loop peptide]: the binding result in assay [6] was “binds”.
On to B6, for which the binding result in assay [7] was “binds”.
